Assay results published in article PMC5771465 (Nature structural & molecular biology, 2016).

B1: His-tagged OmCI carrying two glycosylation mutations (N78Q/N102Q) (natural protein)
chain: DSESDCTGSEPVDAFQAFSEGKEAYVLVRSTDPKARDCLKGEPAGEKQDNTLPVMMTFKQGTDWASTDWTFTLDGAKVTATLGQLTQNREVVYDSQSHHCHVDKVEKEVPDYEMWMLDAGGLEVEVECCRQKLEELASGRNQMYPHLKDC

Legend:
[1] = biological target: C5-OmCI complex (human | not stated (tick)) (UniProt Q5YD59); assay: SEC-MALS
complement C5 = complement C5 (human, UniProt P01031); assay: crystal structure

Row | Molecule | stoichiometry N [1] | binding result (complement C5)
1 | RaCI3 (from UniProt A0A146B485 25-102) (natural protein) | 1 | 
2 | B1 |  | binds
